Values quoted from earlier work as cited in PMC8506081.

Experiments:
[1] = biological target: PSD-95 (Homo sapiens) (UniProt P78352)
[2] = biological target: PSD-95 PDZ2 (Homo sapiens) (UniProt P78352)
Chain of PSD-95 PDZ2 (Homo sapiens) (P78352 157-249): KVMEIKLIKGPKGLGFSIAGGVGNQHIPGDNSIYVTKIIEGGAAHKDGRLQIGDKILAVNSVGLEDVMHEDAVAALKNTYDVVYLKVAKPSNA

Chain of PSD-95 (Homo sapiens) (P78352 whole entry): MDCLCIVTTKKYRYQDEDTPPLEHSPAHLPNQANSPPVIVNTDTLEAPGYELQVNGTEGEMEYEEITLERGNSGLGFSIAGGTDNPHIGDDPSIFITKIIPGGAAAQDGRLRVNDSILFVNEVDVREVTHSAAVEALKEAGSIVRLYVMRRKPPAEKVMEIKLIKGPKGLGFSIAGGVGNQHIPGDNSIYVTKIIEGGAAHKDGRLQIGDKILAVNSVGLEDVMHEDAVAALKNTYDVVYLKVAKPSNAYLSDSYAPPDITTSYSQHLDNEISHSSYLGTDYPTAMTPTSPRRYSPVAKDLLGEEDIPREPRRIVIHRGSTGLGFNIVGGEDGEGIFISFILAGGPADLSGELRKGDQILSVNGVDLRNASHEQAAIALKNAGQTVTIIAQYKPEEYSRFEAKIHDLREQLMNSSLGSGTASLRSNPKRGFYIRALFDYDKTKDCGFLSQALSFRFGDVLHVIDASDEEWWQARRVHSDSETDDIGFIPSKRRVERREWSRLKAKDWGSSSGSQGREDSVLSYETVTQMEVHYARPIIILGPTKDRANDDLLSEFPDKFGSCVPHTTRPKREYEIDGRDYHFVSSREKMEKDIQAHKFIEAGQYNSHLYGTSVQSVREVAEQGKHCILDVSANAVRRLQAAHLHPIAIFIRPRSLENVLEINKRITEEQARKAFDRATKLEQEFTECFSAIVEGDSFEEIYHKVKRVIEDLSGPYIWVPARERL

Row | Substance | Ki [1] [nM] | Ki [2] [nM]
1 | AVLX-125 | 10 | 
2 | NA-1 |  | 4400
